The values that follow come from the supplement of paper PMC10567573.

± gives the standard deviation.

This series can be described thus: protein stability index of a GFP-peptide fusion (GPS, HEK-293T) (PSI 1-6); higher = more stable.
Setting [1] is: treatment: DMSO, c terminus: a fixed tail appended.
Setting [2] is: treatment: MLN4924 1 uM, 8 h, c terminus: a fixed tail appended.
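Further: 24-mer peptide tiles fused after GFP, lentivirally expressed, FACS-sorted into six equal bins by GFP/DsRed ratio, decoded by Illumina sequencing, PSI is the read-weighted mean bin number.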

Take CQQEQLFQTRQEMTSMSAELKMRA [LRRC45]: the protein stability index under setting [1] turned out to be 3.03 ± 0.42 and the protein stability index under setting [2] amounted to 3.1 ± 0.21.
As for VKVTFNKQDSLVILTIMATLKIRN [TMEM106C], the protein stability index is, setting by setting: under setting [1], 2.92 ± 0.53; under setting [2], 2.89 ± 0.32.
For VLSRLQDAAVVRPGFLSTAEEETL [ALKBH7], the protein stability index is, setting by setting: under setting [1], 4.21 ± 0.17; under setting [2], 4.12 ± 0.55.
With TGECKELEKKNEALKERADSLAKE [ATF4], the protein stability index stood at 5.54 ± 0.3 under setting [1] and 5.59 ± 0.18 under setting [2].
With SLRKSNTLCDVTLRVEQKDFPAHR [KLHL12], the protein stability index by setting is: under setting [1], 3.58 ± 0.3; under setting [2], 3.91 ± 0.38.
In the case of RYAVVLNATWLVNSAAHLFGYRPY [SCD], the protein stability index was 2.9 ± 0.65 under setting [1] and 3.05 ± 0.47 under setting [2].
Take DEGGITKQPPVTQSKTASDKSPST [FBF1]: the protein stability index reads like this: under setting [1], 5.44 ± 0.21; under setting [2], 5.56 ± 0.19.
For ELNGHTQKITAIITFPSLESCEEK [WDR41], the protein stability index was found to be 3.1 ± 0.29 under setting [1] and 3.42 ± 0.42 under setting [2].
Take PNIRNMAPNSLSAPTMLHNSSGDF [TRAF3IP2]: the protein stability index under setting [1] was 4.16 ± 0.34 and the protein stability index under setting [2] is 4.43 ± 0.19.
On to TVGGEERVSRKPTAAMRCMCPLYD [GAN], for which the protein stability index worked out at 3.3 ± 0.21 under setting [1] and 3.46 ± 0.49 under setting [2].
The corresponding values for VAQLFNCMVGLLLIALLTWGYIRY [ATL3] are 3.11 ± 0.58 and 2.77 ± 0.42.
The corresponding values for ELSRIVLMRHGMEKIWRPNRVFSL [RAB40C] are 2.37 ± 0.37 and 2.63 ± 0.41.
As for MSSYTVAGRNVLRWDLSPEQIKTR [NLN], the protein stability index runs as follows: under setting [1], 2.99 ± 0.33; under setting [2], 3.04 ± 0.18.
In the case of LKFLEENKIKVMHKQLLLFHNAVS [ARFIP2], the protein stability index was found to be 2.41 ± 0.44 under setting [1] and 2.17 ± 0.26 under setting [2].
The corresponding values for TPPPSPNTQTPVQPPPPPPPPPMQ [CCDC6] are 5.12 ± 0.084 and 5.26 ± 0.25.
The corresponding values for LLDCFGIPVLMALSWFILHARYRV [SLC35F2] are 3.07 ± 0.33 and 3.64 ± 0.27.
On to EILSESVVPDVRSVVTTARMQVLK [SMARCE1], for which the protein stability index is 2.87 ± 0.56 under setting [1] and 2.54 ± 0.38 under setting [2].
For RGFSGGILAFLVLEAVAGALVVAL [TSPAN10], the protein stability index under setting [1] amounted to 2.78 ± 0.9 and the protein stability index under setting [2] came to 2.43 ± 0.41.
The corresponding values for YNNDIDYYAKRNALRAAEVWMDDF [GALNT9] are 2.96 ± 0.076 and 2.99 ± 0.32.
For VIDRKVYNISEFTRRHPGGSRVIS [FADS1], the protein stability index runs as follows: under setting [1], 2.66 ± 0.26; under setting [2], 3.07 ± 0.062.
For the sequence GTSTWQFNFKFNLTEDMYAQDSIE [CNOT7], the protein stability index turned out to be 2.4 ± 0.2 under setting [1] and 2.59 ± 0.28 under setting [2].
The corresponding values for EGTNGQLDYSFGDHTSEAVRNLFG [PCDHGC5] are 3.89 ± 0.13 and 3.9 ± 0.32.
WTSFICDTYIVLAWISKIKGSPDV [SMIM2]: the protein stability index was 3.52 ± 0.58 under setting [1] and 2.53 ± 0.38 under setting [2].
As for SRRREQSSSRNSHLVQHQHPNSRK [ZNF8], the protein stability index is, setting by setting: under setting [1], 5.14 ± 0.46; under setting [2], 5.41 ± 0.075.
With KKIYAMGGGSYGKLFESVECYDPR [GAN], the protein stability index is 2.94 ± 0.24 under setting [1] and 2.99 ± 0.17 under setting [2].
As to ALRGAAVDEYFRQPVVDTFDIRIL [CARM1], the protein stability index runs as follows: under setting [1], 2.48 ± 0.45; under setting [2], 2.6 ± 0.27.
With ENKDHSLERGRASLIFSLKNEVGG [TPH1], the protein stability index worked out at 4.09 ± 0.18 under setting [1] and 3.82 ± 0.38 under setting [2].
In the case of RNTSWGVVQEPPGRASRFLQSISW [TLE6], the protein stability index reads like this: under setting [1], 2.47 ± 0.28; under setting [2], 2.46 ± 0.3.
The corresponding values for LLQHLLEACGRCEEVPEAYVDIHT [PYCR3] are 2.1 ± 0.48 and 2.42 ± 0.66.
With RLLSVPELCHHVAEVWVSGTIFIR [RETREG3], the protein stability index is 2.96 ± 0.4 under setting [1] and 2.69 ± 0.53 under setting [2].
Turning to TSIEEGYERSFIHKIKHKHILAKN [IQUB], the protein stability index worked out at 3.14 ± 0.16 under setting [1] and 3.29 ± 0.55 under setting [2].
Consider HRGCGDGCCCPSCYRRYRFTGFY [KRTAP19-2], for which the protein stability index is, setting by setting: (treatment: DMSO, c terminus: native) 2.83 ± 0.59; (treatment: MLN4924 1 uM, 8 h, c terminus: native) 3.31 ± 0.47.
For the sequence LDMRRDHEEQLQRLKLLKDREVDA [FBF1], the protein stability index amounted to 5.08 ± 0.21 under setting [1] and 4.91 ± 0.3 under setting [2].
The corresponding values for SSLEFTELLTLVNRKVSQRRVDFC [CASP6] are 2.37 ± 0.43 and 2.32 ± 0.087.
With EVQHLREEKSKQFLDLMETIDKQR [LRRC45], the protein stability index by setting is: under setting [1], 4.51 ± 0.32; under setting [2], 4.49 ± 0.25.
As to TWKKNRRQLAYSTVGTPDYIAPEV [STK38L], the protein stability index was determined as 3.39 ± 0.2 under setting [1] and 3.48 ± 0.4 under setting [2].
For the sequence VLSLKEGAREEDLDAVEAQIGCKL [FBXO3], the protein stability index was found to be 5.24 ± 0.49 under setting [1] and 4.6 ± 0.25 under setting [2].
As for PTPSTDAEYPANGSGADRIYDLNI [NCK2], the protein stability index under setting [1] turned out to be 4.69 ± 0.21 and the protein stability index under setting [2] was 4.71 ± 0.19.
For the sequence LRKRKEIREDRDRARLDSMVLLIM [DLC1], the protein stability index runs as follows: under setting [1], 2.08 ± 0.51; under setting [2], 2.17 ± 0.34.
As to RMQALLIRERILGPSHPDTSYYIR [FEM1C], the protein stability index worked out at 2.2 ± 0.17 under setting [1] and 2.18 ± 0.44 under setting [2].
As to SHLCSCLAMLALLSPLSLAQYDSW [LOXL2], the protein stability index was 3.02 ± 0.29 under setting [1] and 2.96 ± 1.2 under setting [2].
The corresponding values for ESSMEDCLAHLGEKVSQELKEPLH [BCL2L13] are 4.97 ± 0.2 and 5.09 ± 0.32.
For the sequence PIVNISEVLGPLCLMLLMGTVHCQ [PHTF1], the protein stability index was 3.34 ± 0.24 under setting [1] and 3.17 ± 0.22 under setting [2].
Consider SRIYGQAMAIINGSLYVFGGTTGY [KLHDC10], for which the protein stability index came out at 2.92 ± 0.3 under setting [1] and 2.87 ± 0.6 under setting [2].
As for TLAQTISEAAIGGAMLGQTTSEEA [HDAC6], the protein stability index worked out at 4.66 ± 0.32 under setting [1] and 4.78 ± 0.28 under setting [2].
As for DTDKWIQKAPMTTVRGLHCMCTVG [KLHL13], the protein stability index by setting is: under setting [1], 2.32 ± 0.25; under setting [2], 2.81 ± 0.35.
LAYYEVCSWKGATKQRIQDQKVPY [CHIT1]: the protein stability index by setting is: under setting [1], 2.71 ± 0.4; under setting [2], 2.8 ± 0.37.
The corresponding values for VLVLAVQVHAWQLYYSKKLLDSWF [JAGN1] are 3.23 ± 0.49 and 3.06 ± 0.91.
Regarding FGEVRPYFYLGGARGAGPPEPLRI [TRIM35], the protein stability index amounted to 2.63 ± 0.91 under setting [1] and 2.76 ± 0.18 under setting [2].
Take GSGQRVPALEEAPDSHQKRPQHSH [ELOA2]: the protein stability index stood at 5.26 ± 0.17 under setting [1] and 5.29 ± 0.33 under setting [2].
The corresponding values for AAVKAAREAFPSWSSRSPQERSRV [ALDH8A1] are 3.73 ± 0.23 and 3.88 ± 0.48.
Take TFTASFSGKVFPFFAVWKKGSCLT [TRIM15]: the protein stability index came to 2.46 ± 0.47 under setting [1] and 2.34 ± 0.42 under setting [2].
As to LYQLEGNNQITCRNGQWSEPPKCL [CFHR2], the protein stability index is, setting by setting: under setting [1], 3.08 ± 0.29; under setting [2], 2.98 ± 0.18.
The corresponding values for QFGQDGPISVHCSAGVGRTGVFIT [PTPRD] are 2.46 ± 0.48 and 2.15 ± 0.22.
In the case of DELVGLPFSSHTYSQASELPTDAV [FBXO34], the protein stability index under setting [1] was 4.95 ± 0.18 and the protein stability index under setting [2] came to 4.81 ± 0.081.
FPALLSTGEFLKLPFERLAFVLSS [KLHL13]: the protein stability index by setting is: under setting [1], 2.95 ± 0.74; under setting [2], 3.08 ± 0.73.
On to QFGIKDVFDNAIRAALISRRHLQF [RHOBTB1], for which the protein stability index is 2.62 ± 0.38 under setting [1] and 2.59 ± 0.46 under setting [2].
RSKESKDCSGLVLLCLFFGIPWEA [PCDHGA10]: the protein stability index is, setting by setting: under setting [1], 3.15 ± 0.37; under setting [2], 2.48 ± 0.61.
The corresponding values for QRRPRVLSCLHSVCEQCLQILYES [RNF208] are 2.32 ± 0.17 and 2.64 ± 0.54.
Turning to ANYTCVAMSTLGVIEAIAQITVKA [PTPRD], the protein stability index was determined as 2.63 ± 0.16 under setting [1] and 3.29 ± 0.93 under setting [2].
Sequence EVKFPNASDMFRRLRDAGFRVTLW [MYORG] registered a protein stability index under setting [1] of 2.97 ± 0.74 and a protein stability index under setting [2] of 2.17 ± 0.31.
The corresponding values for VTQDGRKIYFTDSSSKWQRRDYLL [APMAP] are 2.51 ± 0.18 and 2.41 ± 0.63.
Consider LSEPDPSHTLEERVVHWYFKLLDK [SMOC2], for which the protein stability index was determined as 2.61 ± 0.46 under setting [1] and 2.84 ± 0.29 under setting [2].
On to LEALLEAAGIGKLSTADGKAFADP [ANKRD17], for which the protein stability index by setting is: under setting [1], 3.42 ± 0.38; under setting [2], 3.31 ± 0.15.
The corresponding values for QDPQLHSPFSGSLHAPPAFYSTSS [VENTX] are 3.65 ± 0.2 and 3.75 ± 0.28.
For the sequence HTLPVNRETLKRKVSGNRCASPVT [ESR2], the protein stability index was determined as 4.07 ± 0.14 under setting [1] and 4.24 ± 0.15 under setting [2].
Take EGVISVSEDRTVRVWLKRDSGQYW [WDFY2]: the protein stability index is 2.17 ± 0.2 under setting [1] and 2.3 ± 0.12 under setting [2].
PNGSAAEPPTEAASREENQAGPEA [PALM] registered a protein stability index under setting [1] of 5.56 ± 0.35 and a protein stability index under setting [2] of 5.4 ± 0.25.
As for RCVKSIIRQVLQGLDYLHSKCKII [SRPK2], the protein stability index runs as follows: under setting [1], 2.73 ± 0.88; under setting [2], 2.79 ± 0.59.
Take HFKKQTIYRFLKLHPRGKNNFSPL [FEM1C]: the protein stability index reads like this: under setting [1], 2.71 ± 0.32; under setting [2], 1.96 ± 0.14.
With METHKELKPLLSPSSETTVTVELP [LYSMD4], the protein stability index under setting [1] worked out at 4.77 ± 0.16 and the protein stability index under setting [2] is 5.06 ± 0.083.
PVRRIDGLTDVSQIITVTVQTGLD [IQUB] registered a protein stability index under setting [1] of 2.47 ± 0.45 and a protein stability index under setting [2] of 2.45 ± 0.52.
